Measurements reported in paper PMC3149894 (Journal of molecular biology, 2010).

B1: knobΔTAYT protein containing an MA(H)6 tag at the N-terminus (Ad5 fiber knob, TAYT deleted) (domain or fragment, human adenovirus serotype 5, UniProt P11818 387-581, looked up)
chain: GAITVGNKNNDKLTLWTTPAPSPNCRLNAEKDAKLTLVLTKCGSQILATVSVLAVKGSLAPISGTVQSAHLIIRFDENGVLLNNSFLDPEYWNFRNGDLTEGNAVGFMPNLSAYPKSHGKTAKSNIVSQVYLNGDKTKPVTLTITLNGTQETGDTTPSAYSMSFSWDWSGHNYINEIFATSSYTFSYIAQE
B2: biotinylated knobΔTAYT protein carrying an N-terminal MRGS(H)6 tag followed by an AviTag (domain or fragment, human adenovirus serotype 5, UniProt P11818 387-581, looked up)
chain: B1 chain
modifications: biotin (biotinylated in the host by protein biotin ligase from pBirA)
B3: knobΔTAYT version with an N-terminal MA(H)6 tag followed by an AviTag (biotinylated) (domain or fragment, human adenovirus serotype 5, UniProt P11818 387-581, looked up)
chain: B1 chain
modifications: biotin (biotinylated in the host by protein biotin ligase from pBirA)

Biological target: the molecule itself
Test: SEC-MALS + other: SDS-PAGE

| Protein | stoichiometry N |
| --- | --- |
| B1 | 3 |
| B2 | 3 |
| B3 | 3 |
